According to publication PMC2829314:

Target: LRRTM2-mVenus (full-length LRRTM2 mVenus-fusion protein) (UniProt O43300)
Experiment: saturation binding to cells

Sequence of UniProt O43300 (O43300 34-516): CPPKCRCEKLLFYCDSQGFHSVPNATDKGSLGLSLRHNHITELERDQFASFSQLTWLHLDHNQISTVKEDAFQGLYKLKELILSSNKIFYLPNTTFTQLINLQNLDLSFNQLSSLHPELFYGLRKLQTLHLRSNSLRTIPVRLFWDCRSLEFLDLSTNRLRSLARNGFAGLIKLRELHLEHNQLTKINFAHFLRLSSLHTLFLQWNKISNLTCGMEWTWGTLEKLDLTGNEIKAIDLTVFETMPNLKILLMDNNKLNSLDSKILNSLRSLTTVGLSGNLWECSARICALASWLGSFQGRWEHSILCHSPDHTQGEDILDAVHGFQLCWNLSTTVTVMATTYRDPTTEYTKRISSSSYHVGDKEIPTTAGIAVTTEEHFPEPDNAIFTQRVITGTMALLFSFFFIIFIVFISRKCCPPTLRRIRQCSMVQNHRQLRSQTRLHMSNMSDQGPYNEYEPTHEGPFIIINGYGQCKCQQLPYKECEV

Kd: 5.83 nM
Substance: IgNrx1β^SS4− (Ig-fusion protein of neurexin-1β lacking an insert in splice site #4) (Fc fusion)
